# T1: biotinylated Aβ17-40 peptide (biotinylated (position not given))
# T1 construct: Peptide from Anaspec
# T1 peptide: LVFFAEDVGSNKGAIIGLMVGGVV
# How the values were obtained:
# [1] = biological target: Aβ1-42 peptide (Thioflavin T assay); experiment: cell-based or functional assay
# Aβ1-42 library peptide 1 = experiment: peptide library ELISA, 10 µg/ml mAb
# Source text: (§1) The peptides in the peptide library were composed of 8, 9 or 10-mer aa peptides. A biotinylated complete Aβ1-42 peptide (human sequence) was used as positive control (Bachem, Bubendorf, Switzerland). In addition, longer peptides covering Aβ1-28, Aβ17-40, Aβ1-40 and Aβ1-42 were used to define the broader region to which these antibodies may bind. These 4 peptides were also biotinlyated (manufactured by Anaspec and purchased from ANAWA Trading SA, Switzerland). Epitope mapping was done according to the manufacturer's (Mimotopes) instructions. Briefly, Streptavidin coated plates (NUNC, Roskilde, Denmark) were blocked with 0.1% BSA in PBS overnight at 4° C. After washing with PBS-0.05% Tween 20, plates were coated for 1 hour at RT with the different peptides from the library, diluted in 0.1% BSA, 0.1% Sodium Azide in PBS to a final concentration of 10 μM. […] Plates were washed again and incubated with alkaline phosphatase conjugated goat anti mouse IgG (Jackson Immunresearch West Grove, Pa., USA) for 1 h at RT. After final washing, plates were incubated with phosphatase substrate (pNPP, Sigma-Aldrich, St Louis, Mo., USA) and read after 3 hours of incubation at 405 nm using an ELISA plate reader.
# Aβ1-42 library peptide 2 = experiment: peptide library ELISA, 10 µg/ml mAb
# Source text: as §1
# Aβ1-42 library peptide 3 = experiment: peptide library ELISA, 10 µg/ml mAb
# Source text: as §1
# Aβ1-42 library peptide 4 = experiment: peptide library ELISA, 10 µg/ml mAb
# Source text: as §1
# Aβ1-42 library peptide 5 = experiment: peptide library ELISA, 10 µg/ml mAb
# Source text: as §1
# Aβ1-42 library peptide 6 = experiment: peptide library ELISA, 10 µg/ml mAb
# Source text: as §1
# Aβ1-42 library peptide 7 = experiment: peptide library ELISA, 10 µg/ml mAb
# Source text: as §1
# Aβ1-42 library peptide 8 = experiment: peptide library ELISA, 10 µg/ml mAb
# Source text: as §1
# Aβ1-42 library peptide 9 = experiment: peptide library ELISA, 10 µg/ml mAb
# Source text: as §1
# [2] = biological target: Aβ1-42 library peptide 10; experiment: peptide library ELISA, 10 µg/ml mAb
# Source text: as §1
# [3] = biological target: Aβ1-42 library peptide 11; experiment: peptide library ELISA, 10 µg/ml mAb
# Source text: as §1
# [4] = biological target: Aβ1-42 library peptide 12; experiment: peptide library ELISA, 10 µg/ml mAb
# Source text: as §1
# [5] = biological target: Aβ1-42 library peptide 13; experiment: peptide library ELISA, 10 µg/ml mAb
# Source text: as §1
# [6] = biological target: Aβ1-42 library peptide 14; experiment: peptide library ELISA, 10 µg/ml mAb
# Source text: as §1
# [7] = biological target: Aβ1-42 library peptide 15; experiment: peptide library ELISA, 10 µg/ml mAb
# Source text: as §1
# [8] = biological target: Aβ1-42 library peptide 16; experiment: peptide library ELISA, 10 µg/ml mAb
# Source text: as §1
# [9] = biological target: Aβ1-42 library peptide 17; experiment: peptide library ELISA, 10 µg/ml mAb
# Source text: as §1
# [10] = biological target: Aβ1-42 library peptide 18; experiment: peptide library ELISA, 10 µg/ml mAb
# Source text: as §1
# [11] = biological target: Aβ1-42 library peptide 19; experiment: peptide library ELISA, 10 µg/ml mAb
# Source text: as §1
# [12] = biological target: Aβ1-42 library peptide 20; experiment: peptide library ELISA, 10 µg/ml mAb
# Source text: as §1
# [13] = biological target: Aβ1-42 library peptide 21; experiment: peptide library ELISA, 10 µg/ml mAb
# Source text: as §1
# [14] = biological target: Aβ1-42 library peptide 22; experiment: peptide library ELISA, 10 µg/ml mAb
# Source text: as §1
# [15] = biological target: Aβ1-42 library peptide 23; experiment: peptide library ELISA, 10 µg/ml mAb
# Source text: as §1
# [16] = biological target: Aβ1-42 library peptide 24; experiment: peptide library ELISA, 10 µg/ml mAb
# Source text: as §1
# [17] = biological target: Aβ1-42 library peptide 25; experiment: peptide library ELISA, 10 µg/ml mAb
# Source text: as §1
# [18] = biological target: Aβ1-42 library peptide 26; experiment: peptide library ELISA, 10 µg/ml mAb
# Source text: as §1
# [19] = biological target: Aβ1-42 library peptide 27; experiment: peptide library ELISA, 10 µg/ml mAb
# Source text: as §1
# [20] = biological target: Aβ1-42 library peptide 28; experiment: peptide library ELISA, 10 µg/ml mAb
# Source text: as §1
# [21] = biological target: Aβ1-42 library peptide 29; experiment: peptide library ELISA, 10 µg/ml mAb
# Source text: as §1
# [22] = biological target: Aβ1-42 library peptide 30; experiment: peptide library ELISA, 10 µg/ml mAb
# Source text: as §1
# [23] = biological target: Aβ1-42 library peptide 31; experiment: peptide library ELISA, 10 µg/ml mAb
# Source text: as §1
# [24] = biological target: Aβ1-42 library peptide 32; experiment: peptide library ELISA, 10 µg/ml mAb
# Source text: as §1
# [25] = biological target: Aβ1-42 library peptide 33; experiment: peptide library ELISA, 10 µg/ml mAb
# Source text: as §1
# [26] = biological target: T1, biotinylated Aβ17-40 peptide; experiment: ELISA, biotinylated peptide on streptavidin plate
# Source text: as §1
# [27] = biological target: T1, biotinylated Aβ17-40 peptide; experiment: ELISA, biotinylated peptide (Anaspec) on streptavidin plate, 10 µg/ml mAb
# Source text: as §1
# [28] = biological target: T2, biotinylated Aβ1-40 peptide (biotinylated (position not given)); experiment: as above
# T2 construct: Peptide from Anaspec; also called Ab1-40
# Source text: as §1
# [29] = biological target: T3, biotinylated complete Aβ1-42 peptide (human sequence) (human, biotinylated (position not given)); experiment: peptide library ELISA, complete Aβ1-42 (Bachem) as positive control, 10 µg/ml mAb
# T3 construct: Same peptide from two suppliers (1-42A Anaspec, 1-42B Bachem); the supplier is named under assay; also called Ab1-42; 1-42A (Anaspec)
# Source text: as §1
# Chain of Aβ1-42 peptide (Thioflavin T assay) (peptide, as listed by the source): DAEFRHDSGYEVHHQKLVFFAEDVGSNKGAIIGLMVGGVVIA
# T3 sequence (peptide, as listed by the source): as above
"disaggregation of pre-aggregated Aβ1-42, Thioflavin T fluorescence, antibody to Aβ1-42 molar ratio 1:10 [1]","disaggregation of pre-aggregated Aβ1-42, Thioflavin T fluorescence, antibody to Aβ1-42 molar ratio 1:100 [1]","inhibition of Aβ1-42 aggregation, Thioflavin T fluorescence, antibody to Aβ1-42 molar ratio 1:10 [1]","inhibition of Aβ1-42 aggregation, Thioflavin T fluorescence, antibody to Aβ1-42 molar ratio 1:100 [1]",O.D. (Aβ1-42 library peptide 1),O.D. (Aβ1-42 library peptide 2),O.D. (Aβ1-42 library peptide 3),O.D. (Aβ1-42 library peptide 4),O.D. (Aβ1-42 library peptide 5),O.D. (Aβ1-42 library peptide 6),O.D. (Aβ1-42 library peptide 7),O.D. (Aβ1-42 library peptide 8),O.D. (Aβ1-42 library peptide 9),O.D. [2],O.D. [3],O.D. [4],O.D. [5],O.D. [6],O.D. [7],O.D. [8],Binder,further results
52%,22%,69%,34%,0.1 O.D.,0.1 O.D.,0.12 O.D.,0.11 O.D.,0.11 O.D.,0.11 O.D.,0.11 O.D.,0.11 O.D.,0.11 O.D.,0.13 O.D.,0.11 O.D.,0.24 O.D.,0.17 O.D.,0.16 O.D.,0.14 O.D.,0.14 O.D.,"mouse monoclonal antibody ACI-11-Ab-9 (antibody, V domains shown, also called clone FG1F9E4; DSM ACC2845) VH: QVQLQQSDAELVKPGASVKISCKVSGYTFTDHTIHWMKQRPEQGLEWIGYIYPRDGSTKYNEKFKGKATLTADKSSSTAYMQLNSLTSEDSAVYFCARDYGYAFDYWGQGTTLTVSS VL: QAVVTQESALTTSPGGTVILTCRSSTGAVTTSNYANWVQEKPDHLFTGLIGGTSNRAPGVPVRFSGSLIGDKAALTITGAQTEDDAMYFCALWYSTHYVFGGGTKVTVL",O.D. [9]: 0.13 O.D.; O.D. [10]: 0.11 O.D.; O.D. [11]: 0.1 O.D.; O.D. [12]: 0.1 O.D.; O.D. [13]: 0.1 O.D.; O.D. [14]: 0.1 O.D.; O.D. [15]: 0.11 O.D.; O.D. [16]: 0.1 O.D.; O.D. [17]: 0.11 O.D.; O.D. [18]: 0.12 O.D.; O.D. [19]: 0.13 O.D.; O.D. [20]: 0.12 O.D.; O.D. [21]: 0.2 O.D.; O.D. [22]: 0.11 O.D.; O.D. [23]: 0.12 O.D.; O.D. [24]: 0.12 O.D.; O.D. [25]: 0.11 O.D.; binding result [26]: no binding (tested: 10 µg/ml); O.D. after background subtraction (mean) [27]: 0.02 O.D.; O.D. after background subtraction (mean) [28]: 1.02 O.D.
54%,18%,66%,30%,0.1 O.D.,0.1 O.D.,0.11 O.D.,0.1 O.D.,0.1 O.D.,0.1 O.D.,0.1 O.D.,0.1 O.D.,0.1 O.D.,0.1 O.D.,0.11 O.D.,0.21 O.D.,0.15 O.D.,0.12 O.D.,0.1 O.D.,0.14 O.D.,"mouse monoclonal antibody ACI-12-Ab-11 (antibody, V domains shown, also called clone FK2A6A6; DSM ACC2846) VH: QVQLQQSDAELVKPGASVKISCKVSGYTFTDHTIHWMKQRPEQGLEWIGYIYPRDGSTKYNEKFKGKATLTADKSSSTAYMQLNSLTSEDSAVYFCARDYGYAFDYWGQGTTLTVSS VL: QAVVTQESALTTSPGGTVILTCRSSTGAVTTSNYANWVQEKPDHLFTGLIGGTSNRAPGVPVRFSGSLIGDKAALTITGAQTEDDAMYFCALWYSTHYVFGGGTKVTVL",O.D. [9]: 0.12 O.D.; O.D. [10]: 0.1 O.D.; O.D. [11]: 0.1 O.D.; O.D. [12]: 0.1 O.D.; O.D. [13]: 0.09 O.D.; O.D. [14]: 0.1 O.D.; O.D. [15]: 0.1 O.D.; O.D. [16]: 0.1 O.D.; O.D. [17]: 0.11 O.D.; O.D. [18]: 0.12 O.D.; O.D. [19]: 0.12 O.D.; O.D. [20]: 0.11 O.D.; O.D. [21]: 0.11 O.D.; O.D. [22]: 0.11 O.D.; O.D. [23]: 0.11 O.D.; O.D. [24]: 0.11 O.D.; O.D. [25]: 0.11 O.D.; O.D. after background subtraction (mean) [27]: -0.02 O.D.; O.D. after background subtraction (mean) [28]: 0.62 O.D.; O.D. [29]: 0.69 O.D.

# From patent publication US20160000910A1 (AC IMMUNE S A, published 2016)
